From US20200102388A1 (NEW YORK UNIVERSITY, published 2020)
Changes are numbered by the printed parent chain. Like-named read-outs stand apart in the source and are kept apart here. Each block holds one binder with its values, some of them ahead of it.

Key:
[1] = biological target: T1, heterodimer containing Delta1C and gamma 3, Fc-fusion protein (human); assay: ELISA on gamma/delta TCR-Fc heterodimers immobilised on a microtiter plate, probed with the clone named over the panel (control panel: No Phage)
T1 construct: the assay paragraph says only gamma 3; also called Delta1C/Gamma3; not shown: Fc portion of mouse IgG; AviTag; His6 tag

[2] = biological target: T2, heterodimer containing Delta1C and gamma 8, Fc-fusion protein (human); assay: as above
T2 construct: the assay paragraph says only gamma 8; also called Delta1C/Gamma8; not shown: Fc portion of mouse IgG; AviTag; His6 tag

[3] = biological target: T3, γδ1 TCR containing the delta1C chain (human, biotinylated in vitro using recombinant BirA (AviTag)); assay: SPR (Pioneer, OneStep): biotinylated TCR immobilised on a neutravidin-loaded Avicap chip, IgG flowed; apparent KD
T3 construct: also called biotinylated TCR sample; gamma/delta1 TCR; not shown: Fc portion of mouse IgG; AviTag; His6 tag; TCR gamma chain fused to mouse IgG Fc

[4] = biological target: T3, γδ1 TCR containing the delta1C chain; assay: as above; remark: listed apart in the source
Protocol: (§1) The affinity of the antibodies was assessed using surface plasmon resonance (SPR). A biotinylated TCR sample was immobilized on an Avicap chip (Pall ForteBio) that had been preloaded with neutravidin (ThermoFisher). IgG samples were flowed using the OneStep method on a Pioneer SPR instrument (Pall ForteBio).

[5] = biological target: T1, heterodimer containing Delta1C and …; assay: ELISA on gamma/delta TCR-Fc heterodimers immobilised on a microtiter plate, probed with the clone named over the panel (control panel: No Phage); remark: listed apart in the source
[6] = biological target: T2, heterodimer containing Delta1C and …; assay: as above; remark: listed apart in the source
[7] = biological target: T3, γδ1 TCR containing the delta1C chain; assay: SPR (Pioneer, OneStep): biotinylated TCR immobilised on a neutravidin-loaded Avicap chip, IgG flowed; apparent KD; remark: listed apart in the source
Protocol: as §1

[8] = biological target: T1, heterodimer containing Delta1C and …; assay: ELISA on gamma/delta TCR-Fc heterodimers immobilised on a microtiter plate, probed with the clone named over the panel (control panel: No Phage); remark: listed apart in the source
[9] = biological target: T2, heterodimer containing Delta1C and …; assay: as above; remark: listed apart in the source
[10] = biological target: T1, heterodimer containing Delta1C and …; assay: as above; remark: listed apart in the source
[11] = biological target: T2, heterodimer containing Delta1C and …; assay: as above; remark: listed apart in the source
[12] = biological target: T1, heterodimer containing Delta1C and …; assay: as above; remark: listed apart in the source
[13] = biological target: T2, heterodimer containing Delta1C and …; assay: as above; remark: listed apart in the source
[14] = biological target: T3, γδ1 TCR containing the delta1C chain; assay: SPR (Pioneer, OneStep): biotinylated TCR immobilised on a neutravidin-loaded Avicap chip, IgG flowed; apparent KD; remark: listed apart in the source
Protocol: as §1

[15] = biological target: T3, γδ1 TCR containing the delta1C chain; assay: as above; remark: listed apart in the source
Protocol: as §1

[16] = biological target: T1, heterodimer containing Delta1C and …; assay: ELISA on gamma/delta TCR-Fc heterodimers immobilised on a microtiter plate, probed with the clone named over the panel (control panel: No Phage); remark: listed apart in the source
[17] = biological target: T2, heterodimer containing Delta1C and …; assay: as above; remark: listed apart in the source
[18] = biological target: T3, γδ1 TCR containing the delta1C chain; assay: SPR (Pioneer, OneStep): biotinylated TCR immobilised on a neutravidin-loaded Avicap chip, IgG flowed; apparent KD; remark: listed apart in the source
Protocol: as §1

T1 sequence (V domain, as listed by the source, chain 1 of 2): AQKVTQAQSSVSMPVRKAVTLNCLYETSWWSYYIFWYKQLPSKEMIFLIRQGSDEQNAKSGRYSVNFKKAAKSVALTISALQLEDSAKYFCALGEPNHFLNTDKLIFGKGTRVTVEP
T1 sequence (V domain, as listed by the source, chain 2 of 2): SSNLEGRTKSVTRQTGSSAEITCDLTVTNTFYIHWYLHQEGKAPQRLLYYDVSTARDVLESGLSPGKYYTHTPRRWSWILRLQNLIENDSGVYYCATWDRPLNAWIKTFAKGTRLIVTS
T2 sequence (V domain, as listed by the source, chain 1 of 2): as the sequence (V domain, as listed by the source, chain 1 of 2) above
T2 sequence (V domain, as listed by the source, chain 2 of 2): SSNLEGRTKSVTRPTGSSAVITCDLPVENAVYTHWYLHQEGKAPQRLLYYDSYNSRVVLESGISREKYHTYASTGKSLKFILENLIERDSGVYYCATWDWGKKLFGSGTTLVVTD
T3 sequence (main, as listed by the source): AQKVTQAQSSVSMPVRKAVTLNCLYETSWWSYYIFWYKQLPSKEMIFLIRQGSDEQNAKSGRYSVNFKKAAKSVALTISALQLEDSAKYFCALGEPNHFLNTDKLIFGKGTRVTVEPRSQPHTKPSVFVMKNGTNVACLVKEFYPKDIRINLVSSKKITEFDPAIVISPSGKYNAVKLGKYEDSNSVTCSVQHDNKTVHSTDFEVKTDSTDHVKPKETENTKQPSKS

B2: Delta 1-6 (antibody, V domains shown)
VH: EVQLVESGGGLVQPGGSLRLSCAASGFTVYSSSIHWVRQAPGKGLEWVASISPYSGSTSYADSVKGRFTISADTSKNTAYLQMNSLRAEDTAVYYCARMWYLSGWWTGDALDYWGQGTLVTVSS
VL: DIQMTQSPSSLSASVGDRVTITCRASQSVSSAVAWYQQKPGKAPKLLIYSASSLYSGVPSRFSGSRSGTDFTLTISSLQPEDFATYYCQQGYYSALITFGQGTKVEIKR
Kd [4]: 11 nM | binding result [5]: no binding | binding result [6]: no binding

B3: Delta 1-3 (antibody, V domains shown)
VH: EVQLVESGGGLVQPGGSLRLSCAASGFTLSSSSIHWVRQAPGKGLEWVASIYSSSGYTSYADSVKGRFTISADTSKNTAYLQMNSLRAEDTAVYYCARGLWSVWYYQFYSSMQGMDYWGQGTLVTVSS
VL: DIQMTQSPSSLSASVGDRVTITCRASQSVSSAVAWYQQKPGKAPKLLIYSASSLYSGVPSRFSGSRSGTDFTLTISSLQPEDFATYYCQQGYEYPLTFGQGTKVEIKR
notes: Tested by SPR as human IgG
Kd [7]: 50 nM

B4: Delta 1-15 (antibody, V domains shown)
VH: EVQLVESGGGLVQPGGSLRLSCAASGFTFSSSSIHWVRQAPGKGLEWVASISSSSGSTSYADSVKGRFTISADTSKNTAYLQMNSLRAEDTAVYYCARYSWIYDSWWSGWAMDYWGQGTLVTVSS
VL: B3 VL with G91S, Y92S, E93S, Y94S, P95L, L96I
binding result [8]: binds | binding result [9]: no binding

B7: Delta 1-13 (antibody, V domains shown)
VH: EVQLVESGGGLVQPGGSLRLSCAASGFTFSSSSIHWVRQAPGKGLEWVASISSSSGSTSYADSVKGRFTISADTSKNTAYLQMNSLRAEDTAVYYCARTTSYIDEYFGFGWYAMDYWGQGTLVTVSS
VL: B3 VL with G91S, Y92S, E93S, Y94S, P95L, L96I
Kd [15]: 53 nM

Results, then the binder that gave them:

binding result [1]: no binding | binding result [2]: no binding | Kd [3]: 10 nM
B1: Delta 1-1 (antibody, V domains shown)
VH: EVQLVESGGGLVQPGGSLRLSCAASGFTVSSSSIHWVRQAPGKGLEWVASISSYYGYTSYADSVKGRFTISADTSKNTAYLQMNSLRAEDTAVYYCAREEWMSYWYWPRYYYYGMDYWGQGTLVTVSS
VL: B2 VL with G91A, Y92A, Y93L, S94M, A95S, L96P
notes: Tested by SPR as human IgG made in ExpiCHO cells

binding result [10]: binds | binding result [11]: binds
B5: Delta 1-8 (antibody, V domains shown)
VH: EVQLVESGGGLVQPGGSLRLSCAASGFTVSSSSIHWVRQAPGKGLEWVASIYSSSGYTYYADSVKGRFTISADTSKNTAYLQMNSLRAEDTAVYYCARPYYWYPYYYWSGGWEYAAFDYWGQGTLVTVSS
VL: B3 VL with G91Y, Y92G, L96I

binding result [12]: binds | binding result [13]: binds | Kd [14]: 7 nM
B6: Delta 1-17 (antibody, V domains shown)
VH: EVQLVESGGGLVQPGGSLRLSCAASGFTVSSSSIHWVRQAPGKGLEWVASIYSSSGYTYYADSVKGRFTISADTSKNTAYLQMNSLRAEDTAVYYCARDPGMYYWYYSGSAYEGYGLDYWGQGTLVTVSS
VL: B3 VL with G91S, Y92G, E93D, Y94D, P95L, L96I
notes: also called Delta1-17 IgG

binding result [16]: no binding | binding result [17]: no binding | Kd [18]: 24 nM
B8: Delta 1-10 (antibody, V domains shown)
VH: EVQLVESGGGLVQPGGSLRLSCAASGFTFSSSSIHWVRQAPGKGLEWVASISSSSGSTSYADSVKGRFTISADTSKNTAYLQMNSLRAEDTAVYYCARSMVWYWGLNGYEEYAGGMDYWGQGTLVTVSS
VL: B3 VL with G91S, Y92S, E93S, Y94S, P95L, L96I
